Measurements as given in article PMC3084762, “Distinct Properties of Hexameric but Functionally Conserved Mycobacterium tuberculosis Transcription-Repair Coupling Factor” (PLoS ONE, 2011).

Tests used:
NTD of MtbMfd = biological target: T1, NTD of MtbMfd (Mycobacterium tuberculosis, UniProt P9WMQ5)
T1 construct: gene mfd

SEC = biological target: the molecule itself; experiment: SEC
dynamic light scattering = biological target: the molecule itself; experiment: dynamic light scattering

Molecule	Ksv (NTD of MtbMfd) [µM]	stoichiometry N (SEC)	stoichiometry N (dynamic light scattering)
Nc1ncnc2c1ncn2[C@@H]1O[C@H](COP(=O)(O)OP(=O)(O)OP(=O)(O)O)[C@@H](O)[C@H]1O [ATP]	526	–	–
Mycobacterium tuberculosis Mfd (transcription-repair coupling factor), full length, His-tagged (natural protein, also called MtbMfd; His-tagged MtbMfd; not shown: His tag, N-terminal, kept) MTAPGPACSDTPIAGLVELALSAPTFQQLMQRAGGRPDELTLIAPASARLLVASALARQGPLLVVTATGREADDLAAELRGVFGDAVALLPSWETLPHERLSPGVDTVGTRLMALRRLAHPDDAQLGPPLGVVVTSVRSLLQPMTPQLGMMEPLTLTVGDESPFDGVVARLVELAYTRVDMVGRRGEFAVRGGILDIFAPTAEHPVRVEFWGDEITEMRMFSVADQRSIPEIDIHTLVAFACRELLLSEDVRARAAQLAARHPAAESTVTGSASDMLAKLAEGIAVDGMEAVLPVLWSDGHALLTDQLPDGTPVLVCDPEKVRTRAADLIRTGREFLEASWSVAALGTAENQAPVDVEQLGGSGFVELDQVRAAAARTGHPWWTLSQLSDESAIELDVRAAPSARGHQRDIDEIFAMLRAHIATGGYAALVAPGTGTAHRVVERLSESDTPAGMLDPGQAPKPGVVGVLQGPLRDGVIIPGANLVVITETDLTGSRVSAAEGKRLAAKRRNIVDPLALTAGDLVVHDQHGIGRFVEMVERTVGGARREYLVLEYASAKRGGGAKNTDKLYVPMDSLDQLSRYVGGQAPALSRLGGSDWANTKTKARRAVREIAGELVSLYAKRQASPGHAFSPDTPWQAELEDAFGFTETVDQLTAIEEVKADMEKPIPMDRVICGDVGYGKTEIAVRAAFKAVQDGKQVAVLVPTTLLADQHLQTFGERMSGFPVTIKGLSRFTDAAESRAVIDGLADGSVDIVIGTHRLLQTGVRWKDLGLVVVDEEQRFGVEHKEHIKSLRTHVDVLTMSATPIPRTLEMSLAGIREMSTILTPPEERYPVLTYVGPHDDKQIAAALRRELLRDGQAFYVHNRVSSIDAAAARVRELVPEARVVVAHGQMPEDLLETTVQRFWNREHDILVCTTIVETGLDISNANTLIVERADTFGLSQLHQLRGRVGRSRERGYAYFLYPPQVPLTETAYDRLATIAQNNELGAGMAVALKDLEIRGAGNVLGIEQSGHVAGVGFDLYVRLVGEALETYRDAYRAAADGQTVRTAEEPKDVRIDLPVDAHLPPDYIASDRLRLEGYRRLAAASSDREVAAVVDELTDRYGALPEPARRLAAVARLRLLCRGSGITDVTAASAATVRLSPLTLPDSAQVRLKRMYPGAHYRATTATVQVPIPRAGGLGAPRIRDVELVQMVADLITALAGKPRQHIGITNPSPPGEDGRGRNTTIKERQP	–	6	~6
purified untagged or native MtbMfd (natural protein, also called untagged MtbMfd) MTAPGPACSDTPIAGLVELALSAPTFQQLMQRAGGRPDELTLIAPASARLLVASALARQGPLLVVTATGREADDLAAELRGVFGDAVALLPSWETLPHERLSPGVDTVGTRLMALRRLAHPDDAQLGPPLGVVVTSVRSLLQPMTPQLGMMEPLTLTVGDESPFDGVVARLVELAYTRVDMVGRRGEFAVRGGILDIFAPTAEHPVRVEFWGDEITEMRMFSVADQRSIPEIDIHTLVAFACRELLLSEDVRARAAQLAARHPAAESTVTGSASDMLAKLAEGIAVDGMEAVLPVLWSDGHALLTDQLPDGTPVLVCDPEKVRTRAADLIRTGREFLEASWSVAALGTAENQAPVDVEQLGGSGFVELDQVRAAAARTGHPWWTLSQLSDESAIELDVRAAPSARGHQRDIDEIFAMLRAHIATGGYAALVAPGTGTAHRVVERLSESDTPAGMLDPGQAPKPGVVGVLQGPLRDGVIIPGANLVVITETDLTGSRVSAAEGKRLAAKRRNIVDPLALTAGDLVVHDQHGIGRFVEMVERTVGGARREYLVLEYASAKRGGGAKNTDKLYVPMDSLDQLSRYVGGQAPALSRLGGSDWANTKTKARRAVREIAGELVSLYAKRQASPGHAFSPDTPWQAELEDAFGFTETVDQLTAIEEVKADMEKPIPMDRVICGDVGYGKTEIAVRAAFKAVQDGKQVAVLVPTTLLADQHLQTFGERMSGFPVTIKGLSRFTDAAESRAVIDGLADGSVDIVIGTHRLLQTGVRWKDLGLVVVDEEQRFGVEHKEHIKSLRTHVDVLTMSATPIPRTLEMSLAGIREMSTILTPPEERYPVLTYVGPHDDKQIAAALRRELLRDGQAFYVHNRVSSIDAAAARVRELVPEARVVVAHGQMPEDLLETTVQRFWNREHDILVCTTIVETGLDISNANTLIVERADTFGLSQLHQLRGRVGRSRERGYAYFLYPPQVPLTETAYDRLATIAQNNELGAGMAVALKDLEIRGAGNVLGIEQSGHVAGVGFDLYVRLVGEALETYRDAYRAAADGQTVRTAEEPKDVRIDLPVDAHLPPDYIASDRLRLEGYRRLAAASSDREVAAVVDELTDRYGALPEPARRLAAVARLRLLCRGSGITDVTAASAATVRLSPLTLPDSAQVRLKRMYPGAHYRATTATVQVPIPRAGGLGAPRIRDVELVQMVADLITALAGKPRQHIGITNPSPPGEDGRGRNTTIKERQP	–	6	–
MtbMfd, endogenous in M. tuberculosis H37Ra cell lysate (natural protein) MTAPGPACSDTPIAGLVELALSAPTFQQLMQRAGGRPDELTLIAPASARLLVASALARQGPLLVVTATGREADDLAAELRGVFGDAVALLPSWETLPHERLSPGVDTVGTRLMALRRLAHPDDAQLGPPLGVVVTSVRSLLQPMTPQLGMMEPLTLTVGDESPFDGVVARLVELAYTRVDMVGRRGEFAVRGGILDIFAPTAEHPVRVEFWGDEITEMRMFSVADQRSIPEIDIHTLVAFACRELLLSEDVRARAAQLAARHPAAESTVTGSASDMLAKLAEGIAVDGMEAVLPVLWSDGHALLTDQLPDGTPVLVCDPEKVRTRAADLIRTGREFLEASWSVAALGTAENQAPVDVEQLGGSGFVELDQVRAAAARTGHPWWTLSQLSDESAIELDVRAAPSARGHQRDIDEIFAMLRAHIATGGYAALVAPGTGTAHRVVERLSESDTPAGMLDPGQAPKPGVVGVLQGPLRDGVIIPGANLVVITETDLTGSRVSAAEGKRLAAKRRNIVDPLALTAGDLVVHDQHGIGRFVEMVERTVGGARREYLVLEYASAKRGGGAKNTDKLYVPMDSLDQLSRYVGGQAPALSRLGGSDWANTKTKARRAVREIAGELVSLYAKRQASPGHAFSPDTPWQAELEDAFGFTETVDQLTAIEEVKADMEKPIPMDRVICGDVGYGKTEIAVRAAFKAVQDGKQVAVLVPTTLLADQHLQTFGERMSGFPVTIKGLSRFTDAAESRAVIDGLADGSVDIVIGTHRLLQTGVRWKDLGLVVVDEEQRFGVEHKEHIKSLRTHVDVLTMSATPIPRTLEMSLAGIREMSTILTPPEERYPVLTYVGPHDDKQIAAALRRELLRDGQAFYVHNRVSSIDAAAARVRELVPEARVVVAHGQMPEDLLETTVQRFWNREHDILVCTTIVETGLDISNANTLIVERADTFGLSQLHQLRGRVGRSRERGYAYFLYPPQVPLTETAYDRLATIAQNNELGAGMAVALKDLEIRGAGNVLGIEQSGHVAGVGFDLYVRLVGEALETYRDAYRAAADGQTVRTAEEPKDVRIDLPVDAHLPPDYIASDRLRLEGYRRLAAASSDREVAAVVDELTDRYGALPEPARRLAAVARLRLLCRGSGITDVTAASAATVRLSPLTLPDSAQVRLKRMYPGAHYRATTATVQVPIPRAGGLGAPRIRDVELVQMVADLITALAGKPRQHIGITNPSPPGEDGRGRNTTIKERQP	–	6	–
